From publication PMC7525815

Biological target: Fig4-C486S-Citrine (human) (human) (UniProt Q92562)
Test: co-IP

Sequence of UniProt Q92562 (Q92562 whole entry C486S): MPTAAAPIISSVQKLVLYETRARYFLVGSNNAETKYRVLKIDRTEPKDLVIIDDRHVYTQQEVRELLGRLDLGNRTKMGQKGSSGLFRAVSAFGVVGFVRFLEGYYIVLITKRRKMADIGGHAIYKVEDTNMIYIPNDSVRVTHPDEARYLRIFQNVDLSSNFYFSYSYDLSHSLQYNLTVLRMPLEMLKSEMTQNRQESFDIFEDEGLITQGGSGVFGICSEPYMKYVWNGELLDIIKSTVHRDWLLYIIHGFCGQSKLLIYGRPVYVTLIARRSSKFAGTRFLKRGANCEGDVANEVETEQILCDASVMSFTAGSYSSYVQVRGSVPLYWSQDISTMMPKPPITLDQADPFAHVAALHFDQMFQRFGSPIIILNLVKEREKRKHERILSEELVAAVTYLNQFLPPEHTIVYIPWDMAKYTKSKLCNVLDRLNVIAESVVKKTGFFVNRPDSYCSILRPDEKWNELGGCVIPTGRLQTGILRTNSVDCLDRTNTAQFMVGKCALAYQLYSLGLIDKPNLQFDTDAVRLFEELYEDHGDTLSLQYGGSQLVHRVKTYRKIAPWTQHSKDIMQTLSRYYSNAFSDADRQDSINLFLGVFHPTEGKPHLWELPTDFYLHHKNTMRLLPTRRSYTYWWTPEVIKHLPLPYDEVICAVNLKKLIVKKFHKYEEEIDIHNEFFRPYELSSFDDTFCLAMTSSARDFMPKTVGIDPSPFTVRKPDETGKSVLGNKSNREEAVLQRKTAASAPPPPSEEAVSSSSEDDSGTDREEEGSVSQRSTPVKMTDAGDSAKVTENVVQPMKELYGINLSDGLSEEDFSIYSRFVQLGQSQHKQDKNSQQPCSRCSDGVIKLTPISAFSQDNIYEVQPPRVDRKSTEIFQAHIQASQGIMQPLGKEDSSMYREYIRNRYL

fold PIKfyve association over wild-type Fig4: 9.27 fold
Substance: PIKfyve, Q9Y2I7 1-2098
